Where two headings read alike, the source gives them in different places.
T1: ADAMTS4 (human, UniProt O75173 213-685, limits assumed)
T1 sequence (looked up): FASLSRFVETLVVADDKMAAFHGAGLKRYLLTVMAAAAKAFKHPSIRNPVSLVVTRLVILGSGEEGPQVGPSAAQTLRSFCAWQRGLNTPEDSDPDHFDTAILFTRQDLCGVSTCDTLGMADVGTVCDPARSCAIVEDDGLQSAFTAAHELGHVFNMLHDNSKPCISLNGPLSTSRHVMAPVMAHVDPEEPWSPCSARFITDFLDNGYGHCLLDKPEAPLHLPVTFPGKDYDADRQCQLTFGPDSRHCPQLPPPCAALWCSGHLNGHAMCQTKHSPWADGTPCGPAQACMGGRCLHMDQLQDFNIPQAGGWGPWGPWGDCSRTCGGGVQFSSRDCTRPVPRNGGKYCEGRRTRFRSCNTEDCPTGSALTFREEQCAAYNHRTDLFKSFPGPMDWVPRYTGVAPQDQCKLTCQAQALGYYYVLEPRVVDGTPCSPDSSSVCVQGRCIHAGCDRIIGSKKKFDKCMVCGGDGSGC

T2: ADAMTS5 (human, UniProt Q9UNA0 262-622, limits assumed)
T2 sequence (looked up): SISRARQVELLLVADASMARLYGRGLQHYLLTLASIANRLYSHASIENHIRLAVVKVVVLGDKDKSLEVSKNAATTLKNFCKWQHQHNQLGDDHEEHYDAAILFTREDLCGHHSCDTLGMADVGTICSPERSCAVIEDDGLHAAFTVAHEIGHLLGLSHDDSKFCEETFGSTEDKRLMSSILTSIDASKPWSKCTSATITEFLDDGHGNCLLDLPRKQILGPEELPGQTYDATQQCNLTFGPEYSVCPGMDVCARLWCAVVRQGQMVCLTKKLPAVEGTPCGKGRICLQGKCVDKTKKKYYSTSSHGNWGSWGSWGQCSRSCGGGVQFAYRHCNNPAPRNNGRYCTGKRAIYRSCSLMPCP

T3: Cathepsin G (UniProt P08311 21-244)
T3 sequence (looked up): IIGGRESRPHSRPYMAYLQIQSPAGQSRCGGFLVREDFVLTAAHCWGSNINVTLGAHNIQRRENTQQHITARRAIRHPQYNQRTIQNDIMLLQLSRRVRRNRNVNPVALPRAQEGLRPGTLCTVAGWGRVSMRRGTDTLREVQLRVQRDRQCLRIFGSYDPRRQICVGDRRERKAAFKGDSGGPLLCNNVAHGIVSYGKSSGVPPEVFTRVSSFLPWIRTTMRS

T4: MMP7 (UniProt P09237 95-267, limits assumed)
T4 sequence (looked up): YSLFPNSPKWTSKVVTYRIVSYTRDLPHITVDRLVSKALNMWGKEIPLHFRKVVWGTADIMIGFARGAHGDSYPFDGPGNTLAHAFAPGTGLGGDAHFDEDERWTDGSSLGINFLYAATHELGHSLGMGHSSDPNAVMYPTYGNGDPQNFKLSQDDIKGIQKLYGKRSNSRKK

T5: MMP1 (human, UniProt P03956 100-469, limits assumed)
T5 sequence (looked up): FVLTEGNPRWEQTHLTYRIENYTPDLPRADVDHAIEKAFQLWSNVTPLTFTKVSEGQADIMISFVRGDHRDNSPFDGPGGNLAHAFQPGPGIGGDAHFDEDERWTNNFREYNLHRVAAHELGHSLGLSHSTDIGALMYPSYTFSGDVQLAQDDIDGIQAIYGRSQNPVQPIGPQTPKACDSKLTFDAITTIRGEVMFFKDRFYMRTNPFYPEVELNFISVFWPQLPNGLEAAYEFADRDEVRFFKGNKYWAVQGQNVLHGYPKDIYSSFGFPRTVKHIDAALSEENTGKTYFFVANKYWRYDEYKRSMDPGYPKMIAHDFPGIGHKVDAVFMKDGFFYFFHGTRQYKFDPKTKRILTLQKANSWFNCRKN

T6: MMP2 (human, UniProt P08253 110-660, limits assumed)
T6 sequence (looked up): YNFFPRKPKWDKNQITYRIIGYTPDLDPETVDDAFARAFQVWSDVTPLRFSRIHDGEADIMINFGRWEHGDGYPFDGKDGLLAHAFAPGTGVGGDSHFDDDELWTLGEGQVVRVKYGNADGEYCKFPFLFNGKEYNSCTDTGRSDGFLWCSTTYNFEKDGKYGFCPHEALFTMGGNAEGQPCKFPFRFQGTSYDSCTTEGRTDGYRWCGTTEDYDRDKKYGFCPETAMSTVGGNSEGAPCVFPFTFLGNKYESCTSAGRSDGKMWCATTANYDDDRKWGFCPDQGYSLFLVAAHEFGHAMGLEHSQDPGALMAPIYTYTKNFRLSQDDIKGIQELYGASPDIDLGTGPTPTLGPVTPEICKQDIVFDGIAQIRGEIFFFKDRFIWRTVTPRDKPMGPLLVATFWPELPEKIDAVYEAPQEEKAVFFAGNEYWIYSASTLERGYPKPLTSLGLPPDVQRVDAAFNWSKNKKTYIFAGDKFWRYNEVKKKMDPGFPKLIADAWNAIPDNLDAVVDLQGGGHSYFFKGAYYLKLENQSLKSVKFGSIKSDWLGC

B1: Variant A2M, bait region SEQ ID NO 123 (other)
chain: SVSGKPQYMVLVPSLLHTETTEKGCVLLSYLNETVTVSASLESVRGNRSLFTDLEAENDVLHCVAFAVPKSSSNEEVMFLTVQVKGPTQEFKKRTTVMVKNEDSLVFVQTDKSIYKPGQTVKFRVVSMDENFHPLNELIPLVYIQDPKGNRIAQWQSFQLEGGLKQFSFPLSSEPFQGSYKVVVQKKSGGRTEHPFTVEEFVLPKFEVQVTVPKIITILEEEMNVSVCGLYTYGKPVPGHVTVSICRKYSDASDCHGEDSQAFCEKFSGQLNSHGCFYQQVKTKVFQLKRKEYEMKLHTEAQIQEEGTVVELTGRQSSEITRTITKLSFVKVDSHFRQGIPFFGQVRLVDGKGVPIPNKVIFIRGNEANYYSNATTDEHGLVQFSINTTNVMGTSLTVRVNYKDRSPCYGYQWVSEEHEEAHHTAYLVFSPSKSFVHLEPMSHELPCGHTQTVQAHYILNGGTLLGLKKLSFYYLIMAKGGIVRTGTHGLLVKQEDMKGHFSISIPVKSDIAPVARLLIYAVLPTGDVIGDSAKYDVENCLANKVDLSFSPSQSLPASHAHLRVTAAPQSVCALRAVDQSVLLMKPDAELSASSVYNLLPEKDLTGFPGPLNDQDDEDCINRHNVYINGITYTPVSSTNEKDMYSFLEDMGLKAFTNSKIRKPKMCPQLESQELGQRESESEGSELEGRGSGFKEGVEGKEEEGLGSGFFGFPIGKLRKYFPETWIWDLVVVNSAGVAEVGVTVPDTITEWKAGAFCLSEDAGLGISSTASLRAFQPFFVELTMPYSVIRGEAFTLKATVLNYLPKCIRVSVQLEASPAFLAVPVEKEQAPHCICANGRQTVSWAVTPKSLGNVNFTVSAEALESQELCGTEVPSVPEHGRKDTVIKPLLVEPEGLEKETTFNSLLCPSGGEVSEELSLKLPPNVVEESARASVSVLGDILGSAMQNTQNLLQMPYGCGEQNMVLFAPNIYVLDYLNETQQLTPEIKSKAIGYLNTGYQRQLNYKHYDGSYSTFGERYGRNQGNTWLTAFVLKTFAQARAYIFIDEAHITQALIWLSQRQKDNGCFRSSGSLLNNAIKGGVEDEVTLSAYITIALLEIPLTVTHPVVRNALFCLESAWKTAQEGDHGSHVYTKALLAYAFALAGNQDKRKEVLKSLNEEAVKKDNSVHWERPQKPKAPVGHFYEPQAPSAEVEMTSYVLLAYLTAQPAPTSEDLTSATNIVKWITKQQNAQGGFSSTQDTVVALHALSKYGAATFTRTGKAAQVTIQSSGTFSSKFQVDNNNRLLLQQVSLPELPGEYSMKVTGEGCVYLQTSLKYNILPEKEEFPFALGVQTLPQTCDEPKAHTSFQISLSVSYTGSRSASNMAIVDVKMVSGFIPLKPTVKMLERSNHVSRTEVSSNHVLIYLDKVSNQTLSLFFTVLQDVPVRDLKPAIVKVYDYYETDEFAIAEYNAPCSKDLGNADYKDDDDKGASHHHHHH
B2: Variant A2M, bait region SEQ ID NO 16 (other)
chain: SVSGKPQYMVLVPSLLHTETTEKGCVLLSYLNETVTVSASLESVRGNRSLFTDLEAENDVLHCVAFAVPKSSSNEEVMFLTVQVKGPTQEFKKRTTVMVKNEDSLVFVQTDKSIYKPGQTVKFRVVSMDENFHPLNELIPLVYIQDPKGNRIAQWQSFQLEGGLKQFSFPLSSEPFQGSYKVVVQKKSGGRTEHPFTVEEFVLPKFEVQVTVPKIITILEEEMNVSVCGLYTYGKPVPGHVTVSICRKYSDASDCHGEDSQAFCEKFSGQLNSHGCFYQQVKTKVFQLKRKEYEMKLHTEAQIQEEGTVVELTGRQSSEITRTITKLSFVKVDSHFRQGIPFFGQVRLVDGKGVPIPNKVIFIRGNEANYYSNATTDEHGLVQFSINTTNVMGTSLTVRVNYKDRSPCYGYQWVSEEHEEAHHTAYLVFSPSKSFVHLEPMSHELPCGHTQTVQAHYILNGGTLLGLKKLSFYYLIMAKGGIVRTGTHGLLVKQEDMKGHFSISIPVKSDIAPVARLLIYAVLPTGDVIGDSAKYDVENCLANKVDLSFSPSQSLPASHAHLRVTAAPQSVCALRAVDQSVLLMKPDAELSASSVYNLLPEKDLTGFPGPLNDQDDEDCINRHNVYINGITYTPVSSTNEKDMYSFLEDMGLKAFTNSKIRKPKMCPQLEHGPEFRGVTRYLTAIPENFYGVSELEGRGSSEDLVVQIVEEPHTKLRKYFPETWIWDLVVVNSAGVAEVGVTVPDTITEWKAGAFCLSEDAGLGISSTASLRAFQPFFVELTMPYSVIRGEAFTLKATVLNYLPKCIRVSVQLEASPAFLAVPVEKEQAPHCICANGRQTVSWAVTPKSLGNVNFTVSAEALESQELCGTEVPSVPEHGRKDTVIKPLLVEPEGLEKETTFNSLLCPSGGEVSEELSLKLPPNVVEESARASVSVLGDILGSAMQNTQNLLQMPYGCGEQNMVLFAPNIYVLDYLNETQQLTPEIKSKAIGYLNTGYQRQLNYKHYDGSYSTFGERYGRNQGNTWLTAFVLKTFAQARAYIFIDEAHITQALIWLSQRQKDNGCFRSSGSLLNNAIKGGVEDEVTLSAYITIALLEIPLTVTHPVVRNALFCLESAWKTAQEGDHGSHVYTKALLAYAFALAGNQDKRKEVLKSLNEEAVKKDNSVHWERPQKPKAPVGHFYEPQAPSAEVEMTSYVLLAYLTAQPAPTSEDLTSATNIVKWITKQQNAQGGFSSTQDTVVALHALSKYGAATFTRTGKAAQVTIQSSGTFSSKFQVDNNNRLLLQQVSLPELPGEYSMKVTGEGCVYLQTSLKYNILPEKEEFPFALGVQTLPQTCDEPKAHTSFQISLSVSYTGSRSASNMAIVDVKMVSGFIPLKPTVKMLERSNHVSRTEVSSNHVLIYLDKVSNQTLSLFFTVLQDVPVRDLKPAIVKVYDYYETDEFAIAEYNAPCSKDLGNADYKDDDDKGASHHHHHH

Tests used:
Test in all cases: cell-based or functional assay
ADAMTS4 = target: T1, ADAMTS4
MMP13 [1] = target: T7, MMP13 (human, UniProt P45452 104-471, limits assumed)
ADAMTS5 [2] = target: T2, ADAMTS5
MMP13 [3] = target: T7, MMP13; remark: listed apart in the source
MMP8 = MMP8 (human, UniProt P22894 101-467, limits assumed)
MMP9 = MMP9 (human, UniProt P14780 107-707, limits assumed)
Cathepsin G = target: T3, Cathepsin G
MMP7 = target: T4, MMP7
Elastase = target: Elastase
ADAMTS5 [4] = target: T2, ADAMTS5; remark: listed apart in the source
MMP3 = MMP3 (human, UniProt P08254 100-477, limits assumed)
MMP1 = target: T5, MMP1
MMP2 = target: T6, MMP2

MMP8, sequence (P22894 101-467 limits assumed): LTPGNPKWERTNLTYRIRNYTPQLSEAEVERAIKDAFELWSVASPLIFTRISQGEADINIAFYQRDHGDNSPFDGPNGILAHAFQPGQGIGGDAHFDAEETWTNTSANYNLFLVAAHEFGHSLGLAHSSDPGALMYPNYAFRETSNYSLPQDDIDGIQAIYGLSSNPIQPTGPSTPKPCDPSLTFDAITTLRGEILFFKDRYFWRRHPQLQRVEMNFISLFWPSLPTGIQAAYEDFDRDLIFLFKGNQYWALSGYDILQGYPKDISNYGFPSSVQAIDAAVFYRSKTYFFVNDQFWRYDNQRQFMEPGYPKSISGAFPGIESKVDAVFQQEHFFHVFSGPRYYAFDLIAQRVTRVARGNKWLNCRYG
MMP9, sequence (P14780 107-707 limits assumed): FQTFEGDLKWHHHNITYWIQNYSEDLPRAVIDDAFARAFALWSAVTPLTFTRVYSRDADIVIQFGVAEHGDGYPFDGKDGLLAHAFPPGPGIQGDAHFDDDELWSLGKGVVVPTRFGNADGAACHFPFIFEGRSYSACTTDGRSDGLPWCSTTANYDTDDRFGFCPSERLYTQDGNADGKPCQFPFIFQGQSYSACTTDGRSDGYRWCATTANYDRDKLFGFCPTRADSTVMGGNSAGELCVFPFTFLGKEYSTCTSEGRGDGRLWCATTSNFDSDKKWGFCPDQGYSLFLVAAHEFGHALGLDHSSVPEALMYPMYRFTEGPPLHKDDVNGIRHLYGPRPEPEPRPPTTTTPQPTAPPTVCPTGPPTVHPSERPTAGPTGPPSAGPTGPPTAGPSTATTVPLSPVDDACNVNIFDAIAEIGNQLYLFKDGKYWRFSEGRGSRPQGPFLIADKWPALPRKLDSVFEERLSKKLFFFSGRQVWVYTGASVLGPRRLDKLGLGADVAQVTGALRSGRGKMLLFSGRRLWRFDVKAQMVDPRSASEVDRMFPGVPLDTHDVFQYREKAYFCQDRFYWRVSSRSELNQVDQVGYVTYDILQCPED
MMP3, sequence (P08254 100-477 limits assumed): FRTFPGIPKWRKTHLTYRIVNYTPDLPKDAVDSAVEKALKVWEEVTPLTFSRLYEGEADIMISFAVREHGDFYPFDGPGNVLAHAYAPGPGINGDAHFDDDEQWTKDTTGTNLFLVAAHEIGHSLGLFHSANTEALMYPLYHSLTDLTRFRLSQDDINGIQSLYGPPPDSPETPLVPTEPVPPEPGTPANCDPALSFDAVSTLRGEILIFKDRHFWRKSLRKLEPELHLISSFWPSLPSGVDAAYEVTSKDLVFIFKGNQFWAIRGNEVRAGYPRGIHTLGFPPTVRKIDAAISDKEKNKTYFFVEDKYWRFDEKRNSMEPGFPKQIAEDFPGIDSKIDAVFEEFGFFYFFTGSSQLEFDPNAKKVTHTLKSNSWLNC

| Protease Inhibition (% of WT) (ADAMTS4) | Protease Inhibition (% of WT) (MMP13 [1]) | Protease Inhibition (% of WT) (ADAMTS5 [2]) | Protease Inhibition (% of WT) (MMP13 [3]) | Protease Inhibition (% of WT) (MMP8) | Protease Inhibition (% of WT) (MMP9) | Protease Inhibition (% of WT) (Cathepsin G) | Protease Inhibition (% of WT) (MMP7) | Protease Inhibition (% of WT) (Elastase) | Protease Inhibition (% of WT) (ADAMTS5 [4]) | Protease Inhibition (% of WT) (MMP3) | Protease Inhibition (% of WT) (MMP1) | Protease Inhibition (% of WT) (MMP2) | Binder |
| --- | --- | --- | --- | --- | --- | --- | --- | --- | --- | --- | --- | --- | --- |
| 86 % of WT | 122 % of WT | 126 % of WT | – | – | – | – | – | – | – | – | – | – | B1 |
| – | – | – | 104 % of WT | 92 % of WT | 84 % of WT | 105 % of WT | 105 % of WT | 91 % of WT | 305 % of WT | 180 % of WT | 101 % of WT | 92 % of WT | B2 |
